According to the nanobody polyreactivity screen of Harvey et al. (2022):

Experiment: yeast display, Sf9 membrane polyspecificity reagent, FACS + sequencing; frameworks hold sequencing errors
In short: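 A synthetic nanobody library was expressed on Saccharomyces cerevisiae BJ5465 by galactose induction for 36–48 hours. The library was stained for 1 hour at 4 °C with 10% biotinylated, detergent-solubilized Sf9 membrane reagent and enriched with streptavidin microbeads before FACS. Low and high (top ~1%) gates were set on anti-HA fluorescence for expression and streptavidin fluorescence for reagent binding, and each polyreactivity label reflects the gate of origin.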

Sequence	polyreactivity (PSR sort gate)
QVQHVESGGGLVQPGGSLRLSCAASGYTFYANAMGWYRQAPGKEREFVASITWSGGSSYYADSVKGRFTISRDNAKNTVYLHLNSLKPEDTAVYYCAAESWFKYDYWGQGTQVTLSS	low polyreactivity
QVQLVESGGGLVQAGGSLRLSCASSGFTFSIYAMGWYRQAPGKERELVAAISSSGGITYYADAVKGRFTISRDNAKNTVYLQMKSLKPEDTAVYYWNKYFKTFYVSYLHDYWGQGTQVSVSS	high polyreactivity
QVQLVESGGGLVQAGGSLRLSSAASGRIFEGYAMGWYRQAPGKERELVAAISSGGSTYYADSVKGRFTISRDNAKNTVYLQMNSLKPEDTAVYYCNAAHSVVSHGPGAGLEMDYWGQGTQVTVSS	low polyreactivity
QVQLVESGGGLVQAGGSLRLSCAASGNTFVQNTMGWYRPATGKETELVAAISTRGGSTYYADSLKGRFTISRDNAKNTVYLQMNSLKPVDTAVYYCAARSKVRRSYDYWGQGTQVTVSS	high polyreactivity
QVQLVESGGGLFQAGGSLRLSCAASGSTFVKYAMGRSRPAPAKERELVAAINRSGASTYYADSVKGRFTISRDNATNTVNLQMISLKPEDTAVYYCAARFSWLGYYWGQGTQETVSS	high polyreactivity
QVQLVESGGGLVLAGGSLRLSCAASGRTYYAYTMGWYRKAPRKERELVAAISGSGSTTYYADSVKGRFTISRDNAKNTVYLQMNSLKPEDTAVFYCAADFFAGTQRTFDYWGQGTQVTVSS	high polyreactivity
QVQLVESGGGLVQAGGSLRLSCAASGRIFPWYTMGWYRQAPGKERELVAAITSGGNTDYADSVKGRFTISRDNAKNTVYLQMNSLKPEDTAVYYCAAGGYPGTTYYGYDYWGQGTQVTVSS	low polyreactivity
QVQLVESGGGLVQAGGSLRLSCAASGSTFASNAMGWYRQAPGKDRELVADLSSGGSTYADSVKGRFTISRDNAKNTVYLQMNSLKPVDTAVYYCNNRSYGFLRGPRKTIKYYRYGYWGQGTQVTVSS	high polyreactivity
QVQLVESGGGLVQAGGSLRLSCAASGSILGVNVMGWYRQAPGKERELVAAISLSSSRTNYADSVKGRFTISRDNAKNTVYLQMNSLKPVDTAVYDCASAVRPGYARPYTSWGQGTQVTVSS	high polyreactivity
QVQLVESGGGLVQAGGSLRLSCSASGSTFGDYAMRWYRQAPGKREFVAAISFSGGNTYYADSVKVRFTISRDNAKNTVYLQMNSLKPEDTAVYYCNADWDWFYSTGSLGFPDFYYWGQGTQVSVSS	low polyreactivity
QVQLVETGGGLVQAGGSLRLSCAASGYIFYPYTMGSYRPAPGKATELVAAITWSGSTYSADSVQGRFTMSRDTAKNTVYLQMKSLKPEDTAVYYCAADFDSYDSYTYLQYDYWGQGTQVTVSS	low polyreactivity
QVQLVESGGGLVQAGGSLRLSCAASGSIFPPYAIGSYRQAPGKERELVATITIRGGSTYYADSVKGRFTISRDNAKNTVYLQMNSLKPEDTAVYYCAADYTKYYRRYYYWGQGTQVTVSS	high polyreactivity
QVQLEESGGRLVQAGGSLRLSCAASGSTFQTYAMGWYRQAPGKERELVAAITWRGGSTYYADSVKGRFTISRDNAKNTVYLQMNSLKPEDTAVYYCAAKWHGAHDHRAAYESWGQGTQVTVSS	low polyreactivity
QVQLVESGGGLVQAGGSLRLSCADSGFIFYFYTKGCYIQSPGKDRELVSGITWLDGSTYYADSVKGRFTISRDNAKNTVYLQMNSLKPEDTAVYYCNRDQWPWESGYAYNYWGQGTQVTVSS	low polyreactivity
QVQLVESGGGLVQAGGSLRLSCAASGRIFAFYVMGWYRQAPGKERELVAAITSGGNTNYADSVKGRFTISRDNAKNTVYLQMNSLKPEDTAVYYCARAWLGQYTLGTYYYWGQGTQVTVSS	low polyreactivity
QVQLVESGGGLVQAGGSLRIICAASGRIFYSNGMGWYRQAPGKERELVAGITRGGSTNYADSVKGRFTISRDNAKNTVYLQMISLKPEDTAVFYCAANQLHYRPSRFVYYGYRLYDYWGHGTQVTVSS	low polyreactivity
QVQLVESGGGLVQAGGSLRLSCAASGRTFTAYAMGWYRQAPGKERELVASISSGVTYADSVKGRFTISRDNAKNTVYLQMTSLKPEDTAVYYCAARLWYVQGYVPYVHHRFDYWGQGTQVTVSS	low polyreactivity
QVQLVESGGRLVQAGGSLRLSCAASGHIFFYYTMGRYRPGPGKERELVAGITIGGSTNYADSVKGRFTISRDNAKNTVYLLMNSLKPADTAVYYCNVVKYVYISSYWEYYYWGQGAQVTVSS	low polyreactivity
QVQLVESGGGLVQAGGSLRLSCAASGRIFSNNAMGWYRQAPGNERELVAAISSSGGSTYYADSVKGRFTISRDNAKNTVYLQMNSLKPEDTAVSYCNVGRRKIDDYWGQGTQVTVSS	high polyreactivity
QVQIVESGGGKVQEGGSLRLSCAASGITFTWYDMGWYRQAPGKERELVAAITTDGGSTYYADSVKGRFTISRDNAKNTVYLQINSLKPEDTAVYYCAAAGYVPFPVVYEYWGQGTQVTVSS	high polyreactivity
QVQLVESGGGLVQAGGSLRLSCAASGLTLYDYAMGWYRQAPGKERELVADIDFNGGSTSYADSVKGRFTISRDNAKNTVYLQMNSLKPEDTAVYYCNTRDRGDVVTGLDYWGQGTQVTVSS	low polyreactivity
QVQLVESGGGLVQAGGSLRLSCAASGYIFFRYAMGWYRQAPGKERELVAAINSSGDSTYADSVKGRFTISRDNAKNTVYLQMNSLKPEDTAVYYCNKDAPLFHDIIIDMDYWGQGTQVTVSS	low polyreactivity

Sequence	polyreactivity (PSR sort gate)
QVQLVESGGGLVQAGGSLRLSCAASGRTFQYYAMGWYRQAPGKEREFVAAISRSGGSTYYADSVKGRFTISRDNAKNTVYLQMNSLKPEDTAVYYCAADAYRSSYDYWGQGTQVTVSS	low polyreactivity
QVQLVESGGGLVQAGGSLRLSCAPSGFTFGIYAMGWYRQAPGKERELLADINVSDGSTYYADSVKRRFTISRDNAKNTVYLQMNSLKPEDTAVYYSAAYVYDTIYTSYREYDYWGQGTQVTVST	low polyreactivity
QVQLVESGGGLVQAGGSLRLSCAASGITFAQYAMGWYRQAPGTERELVAGITRSGGSTHYADSVKGRFTISRDNAKNTVYLQMNSLKPEDTAVYYCNARYPYRGKRKPSDYWGQGTQVTVSS	high polyreactivity
QVQLVESGGGLVQAGGSLRLSCAASGFTFDSNAMGWYIQAPGKERELVAAISTGGSTYYADSVKGRFTISRDNAKNTVYLQMNSLKPEDTAVYYCARDPPYPDTWYGYWGQGTQVTVSS	low polyreactivity
QVQLVESGGGLVQAGGSLRLSCAASGFTLAGYAMGWYRQAPGKERELVSAITTSGGSTFYADSVKGRFTISRDNAKNTDYLKMNSLKPEDTAVYYCAAAIRTRTSYYRFDYWGQGTQVTVSS	high polyreactivity
QVQLVESGGGLVQAGGRLRLSCAASGRIFYHNAMGWYRQAPGKERELVAAITWSGVSTYYADSVKGRFTISRDNAKNTVYLQMNSLKPEDTAVYYCAKRGRWDWDFNYWGQGTQVTVSS	high polyreactivity
QVQLVESGGGLVQAGGSLRLSCAASGFTFYRYVMGWYRQAPGKERELVAAITGGGRTYYADSVKGRFTISRDNAKNTVYLQMNSLKPEDTAVYYCNKAVPAWGLYDYWGQGTQVTVSS	low polyreactivity
QVQLVESGGGLVQAGGSLRLSCAASGSTFVGNAMGWYRQAPGKERELVAAITGGGGSTYYADSVKGRFTISRDNAKNSVYLQMNSLKPEDTAVDYCARDRTDYYVWYVRYYYWGQGTQVTVSS	low polyreactivity
QVQLVESGGGLVQAGGSLRLSCAASGFIFYKYAMGWYRQAPGKERELVAAITRSGGSTYYADSVKGRFTISRDNAKNTVYLQMNSLKPEDTAVYYCAKRSYRARDAVPGGFDSWGQGTQVTVSS	high polyreactivity
QVQLVESGGGLVQAGGSLRLSCAASGFTFVGNAMGWYRQAPGKERELVATITSGGNTKYADSVKGRFTISRDNAKNTVYLQMNSLKPEDTAVYYCAAAKYNYRRFNYWGQGTQVTVSS	low polyreactivity
QVQLVESGGGLVQEGGSLRLTCAASGRIFQRYAMGWYSPPPGKERELVAVITKRGGNTYYADSVKGRFTLSRDNAKNTVYLQMNSLKPEDTAVYYCATRSGRSTGDYWGQGTQVTVSS	high polyreactivity
QVQLVESGGGLVQAGGSLRISCAASGRIFYFNGMGWYRQAPGKERELVAAITSGGSTYYADSVKGRFTISRDNAKNTVYLQMNSLKPEDTAVYYCAAQNAWWSNGRSYDYWGQGTQVTVSS	low polyreactivity
QVQLVESGGGLVQAGGSLRLSCAASGRTFAINTMGWYRPAPGKEREFVASITRRGGSTYYADSVKWRFTISRDNAKNTVYLQMNSLKREDNAVYYCNAELRWRLPARAAYYYWGQGTQVTFSS	high polyreactivity
QVQLVESGGGLVQAGGSLRLSCAASGRTFGDYAMGGYRPAPGKESELVAAISRRGGNTYYADSVKGRFTISRDNAKNTVYLQMNSLKPDDTAVYDCAAVAYALGFASKEDYWGQGTQVTGSS	high polyreactivity
QVQLVESGGGLVQAGGSLRLSCAASGRTFRSNAMGWYRQAPGKERELVAAIRNSDGSTNYADSVKGRFTISRDNAKNTVYLQMNSLKPEDTAVYYCAASSTVGRITRILYYYWGQGTQVTVSS	high polyreactivity
QLQLVESGGGLVQAGGSLRLSCAASGSILTINAMGWYSQAPGKERELVAAITGNGGSTDYADSVKVRFTISRDNAKNTVYLQMNSQKPEDTAVYYCAARVRGTGVYGGYNYWGQGTQVTVSS	high polyreactivity
QDQLVESGGGLVQAGGSLSLSCAASGSTFPYYAMGWSRPAPGKERELVAAISGSGGTTYYADSVKGRFTISRDNAKNTVYLQMNSLKPEDTAVYYCAVDIGVGYGYYYWGQGTQVTVSS	low polyreactivity
QVQLVESRGGLVQAGGSLRLSSAASGFTFHGNAMRWYRQAPGKERQLVAGISSSGASTYYADSVKGRFTISRDNAKNTVYLQMNILKPEDTAVYYCAVRYYGRYLRYNYCGQGTQVTVSS	high polyreactivity
QVQLVDSGGGLVQAGGSLRLSCAASGRTFGRYTMGWYRQAPGKERELVAAITYSGGSTYYADSVKGRFTISRDNAKNTVYLQMNSLKPEDTAVYYCAAEWVYDWYRYGYWGQGTQVTVSS	low polyreactivity
QVQLVESAGALVQAGGRLRLSCAASGRTFRKYAMGWYRQAPGTERELVAAISWSGGSTYYANSVKGRFTISRDNAKNTVYLQMNSLKPEDTAVYYWAAVPVHTGSLYWGFTTGYDYWGQGTQVTVSS	low polyreactivity
QVQLVESGGGLVQAGGSLRLSCAASGRIFSKYAMGWYRQAPGKARELVAAISTSTGSTYYADSVKGRFTISRDNAKNTVYLQMNSLKPEDTAVYYCAAVGSRWFSQTWRDYWGQGTQVTVSS	high polyreactivity
